Test results taken from paper PMC4792069.

Biological target: LAP-tagged hMps1 (LAP-Mps1), stably expressed from a BAC (human) (UniProt P33981)
Test: fluorescence cross-correlation spectroscopy

Sequence of UniProt P33981 (P33981 whole entry): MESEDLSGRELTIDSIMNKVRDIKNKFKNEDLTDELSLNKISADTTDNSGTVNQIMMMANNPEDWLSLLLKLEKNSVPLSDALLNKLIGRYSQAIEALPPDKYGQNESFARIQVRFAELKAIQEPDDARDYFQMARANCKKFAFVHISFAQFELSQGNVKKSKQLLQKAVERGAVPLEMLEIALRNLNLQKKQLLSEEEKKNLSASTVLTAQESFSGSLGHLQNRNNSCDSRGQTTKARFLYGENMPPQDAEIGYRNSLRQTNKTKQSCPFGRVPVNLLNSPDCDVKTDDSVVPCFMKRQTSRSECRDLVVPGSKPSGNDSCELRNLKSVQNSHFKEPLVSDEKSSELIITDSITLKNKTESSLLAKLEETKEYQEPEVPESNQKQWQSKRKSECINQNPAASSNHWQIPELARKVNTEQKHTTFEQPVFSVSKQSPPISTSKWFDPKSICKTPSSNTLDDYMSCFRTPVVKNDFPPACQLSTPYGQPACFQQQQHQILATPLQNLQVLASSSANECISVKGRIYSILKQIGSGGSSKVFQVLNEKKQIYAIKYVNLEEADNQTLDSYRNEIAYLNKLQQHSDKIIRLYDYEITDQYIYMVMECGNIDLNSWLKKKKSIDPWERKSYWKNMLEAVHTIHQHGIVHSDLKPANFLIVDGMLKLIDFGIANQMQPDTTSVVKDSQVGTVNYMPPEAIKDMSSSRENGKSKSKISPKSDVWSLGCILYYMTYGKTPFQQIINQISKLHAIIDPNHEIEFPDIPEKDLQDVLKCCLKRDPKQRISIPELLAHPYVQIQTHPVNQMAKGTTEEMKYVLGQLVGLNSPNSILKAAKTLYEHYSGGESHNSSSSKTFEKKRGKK

normalized cross-correlation (FCCS): 12.4%
Substance: mCherry-tagged ARHGEF17 (ARHGEF17-mCherry), Q96PE2 1-2063
